We go through 1 sequence from the Immune Epitope Database (IEDB).

pKd: −log10 of the molar value.

In general, pKd refers to the Kd on a negative log10 scale, so that one unit is a factor of ten.

Among the targets are HLA-B*53:01; HLA-B*46:01; HLA-B*18:01; HLA-A*23:01; HLA-A*02:12; HLA-B*07:02; HLA-B*44:02; HLA-B*57:01; HLA-A*66:01; HLA-A*01:01; HLA-A*26:01; HLA-B*58:01; HLA-A*30:01; HLA-A*24:03; HLA-A*69:01; HLA-A*30:02; HLA-A*11:01; HLA-A*02:19; HLA-A*02:03; HLA-B*15:17; HLA-A*03:01; HLA-B*14:02; HLA-A*68:02; HLA-B*27:03.
Experiment in all cases: IEDB peptide-MHC binding, purified MHC/competitive/fluorescence; filed as Kd, often an IC50 or EC50 that approximates it; ≥ and ≤ were set here for values at or beyond the usual limits of such assays
Details in all cases: source organism: Rickettsia akari str. Hartford

In the case of FTARIIIFS, the negative-log Kd (pKd) in the assay with HLA-B*53:01 is ≤ 5.30; with HLA-B*46:01, ≤ 4.70; with HLA-B*18:01 it was ≤ 4.70; in the assay with HLA-A*23:01, ≤ 4.70; with HLA-A*02:12 it was ≤ 4.70; in the assay with HLA-B*07:02, ≤ 5.30. For the same sequence, the pKd with HLA-B*44:02 is ≤ 5.30; with HLA-B*57:01 it was ≤ 4.70; with HLA-A*66:01 it was 5.52; in the assay with HLA-A*01:01, ≤ 5.30; in the assay with HLA-A*26:01, ≤ 4.70; with HLA-B*58:01, ≤ 5.30. Moreover, the negative-log Kd (pKd) with HLA-A*30:01 was ≤ 5.30; in the assay with HLA-A*24:03, ≤ 4.70; in the assay with HLA-A*69:01 it was ≤ 4.70; with HLA-A*30:02 it was ≤ 5.30; with HLA-A*11:01 it was ≤ 5.30; with HLA-A*02:19, ≤ 4.70. Further, the pKd was ≤ 4.70 in the assay with HLA-A*02:03; ≤ 4.70 with HLA-B*15:17; ≤ 4.70 with HLA-A*03:01; ≤ 5.30 with HLA-B*14:02; 7.56 in the assay with HLA-A*68:02; ≤ 4.70 with HLA-B*27:03.
